Data on 40 sequences can be found in the nanobody polyreactivity screen of Harvey et al. (2022).

This data set in a line: yeast display, Sf9 membrane polyspecificity reagent, FACS + sequencing; frameworks hold sequencing errors. In a few lines: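 A nanobody's polyreactivity label depends on the gate it was sorted from. Yeast display cells were stained with 10% biotinylated, detergent-solubilized Sf9 membrane reagent for 1 hour at 4 °C, enriched on streptavidin microbeads and sorted by FACS. The low and high (top ~1%) gates were set on anti-HA fluorescence for expression and streptavidin fluorescence for reagent binding.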
Turning to “QVQLVESGGGLVQAGGSLRLSCAASGSTFGPNPMGWYRQAPGKERELVAAISRAGRTYYADSVKGRFTISRDNAKNTVYLQMNSLKPEDTAVYYCNAGRSYHWRAGGEYDYWGQGTQVTVSS”, the “polyreactivity (PSR sort gate)” value was “low polyreactivity”.

Regarding “QVQLVESGGGLVQAGGSLRLSCAASGFTFGHYAMGWYRQAPGIERELVAAISRSGGTTSYADSVKGRFTISRDNAKNTVYLQMNSLKPEDTAVYYCNKDYIWARYGGGRDYWGQGTQVTVSS”, the “polyreactivity (PSR sort gate)” value is “low polyreactivity”.

Consider “QVQLVESGGGLVQAGGSLRLSCAASGGIFVSYAMGWSRQAPGKERELVARINTVDGTNYADSVKGRFTISRDNAKNTVYLQMNSLKPEDTAVYYCAVRSPVLASDYGYYFLRDYWGQGTQVTVSS”, for which the “polyreactivity (PSR sort gate)” value is “low polyreactivity”.

Take “QVQLVESGGGLVQAGGSLRLSCAASGRTFEGNAMGWYRQAPGKERELVAAITSGGRTNYADSVKGRFTISRDNAKNTVYLQMNSLKPEDTAVYYCAAGQVSVGTIAKYDYWGQGTQVTVSS”: the “polyreactivity (PSR sort gate)” value is “low polyreactivity”.

Regarding “QVQLVESGGGLVHAGGSLRLSCAASGSTFPRNDMGWYRQAPGKERELVAAISRGGSTNYADSVKGRFTISRDNAKNTVYLQMNSLKPEDTAVYYCAAQIFESAYGMDYWGQGTQVTVSS”, the “polyreactivity (PSR sort gate)” value was “low polyreactivity”.

As to “QVQLVESGGGLVQAGGSLRLSSAASGFTFSDNAMGWYRQAPGKERELVAAISRSGGNTHYADSVKGRFTISRDNAKNTVYLQMNSLKPEDTAVYYCAKYLYKSRIRSTFDYWGQGTQVTVSS”, the “polyreactivity (PSR sort gate)” value was “high polyreactivity”.

Consider “QVQLVESGGGLVQAGGSLRLSCAASGSIFGGYAMGWYRQAPGKERELVATITRGGSTYYADSVKGRFTISRDNAKNTVYFQMNSLKPEDTAVYYCAARLRSKTYYTLEFDYWGQGTQVTVSS”, for which the “polyreactivity (PSR sort gate)” value is “high polyreactivity”.

In the case of “QEQQQESGGGLVQAGGSLRLSCSSSGSIILFYTMGWYRHAPVKERECVAGITLGTTTYNADSVKGRFTISRDNVKISVYLQMNSLKPEDTAVDYCAVAVGHYTEFWYWGQGTQVTMSS”, the “polyreactivity (PSR sort gate)” value is reported as “high polyreactivity”.

For the sequence “QVQLVESGGGLVKAGGSLRLSCAASGSTFSRNTMGWYRQAPGKERELVAAITKSAVSTYYADTVTGRFTISRDNAKNTDYLEMNSLKPEDTAVYYSAKVYRTSTSKAYDYWGQGTKVTVSS”, the “polyreactivity (PSR sort gate)” value was “high polyreactivity”.

Regarding “QVQLVASGGGLVQAGGSLRLSCAASGSTFARYAMGWYTPAPGKERELVAAITEGGDRTSYADSVKGRFTISRDNAKNHVYLQMHSLKPEDTAVYYCAAERRYESWYFGYRTMDYWGQGTQVTVSS”, the “polyreactivity (PSR sort gate)” value is “low polyreactivity”.

Take “QVQRVESGGGLVQAGCSLRLSCAASGLIFTRYDMGWNRPAPGKERELVAAISGDGGSTYYAESVKGRFTISRDNAKNTVYLQMNSLKPEDTAVYYCAADSARTPWDDYWGQGTQVTVSS”: the “polyreactivity (PSR sort gate)” value is on record as “high polyreactivity”.

In the case of “QVQLVESGGGLVQAGGSLRLSCAASGFTFPRYAMGWYREAPGKEREFVAAINRGGSTYYADSVKGRFTISRDNAKNTVYLQMNSLKPEDTAVYYCITDRKNRPSPGDYYWGQGTQVTVSS”, the “polyreactivity (PSR sort gate)” value was “low polyreactivity”.

Consider “QVQLVESGGGLVQAGGSLRLSCAACGFTFTIYAMGWYRQAPGKERELVATISGRAGRTYYADSVKGRFTISRDNAKNTVYLQMNSLKPEDTAVYYCTAGQWRYPGLYYYWGQGTQVTVSS”, for which the “polyreactivity (PSR sort gate)” value is given as “high polyreactivity”.

In the case of “QVQLVESGGGLVQAGGSLRLSCAASGSTFETNAMGLYRQATRKERELVAAISYNGGSTYADSVKGRFTISRDNAKNTVYLHMNSLKPEDSAVYYCAAVRSPRGLGGYWGQGTQVTVAS”, the “polyreactivity (PSR sort gate)” value is on record as “low polyreactivity”.

Take “QVQLVESGGGLVQAGGSLRLSCAASGSNFANYAMGWYIQAHGKERELVAAISWSGSSTYYADSVKGRFTISRYNAKNTVYLQMNSLKPEDTAVYYCAADYATPTWEYYYWGQGTQVTVSS”: the “polyreactivity (PSR sort gate)” value is “low polyreactivity”.

Take “QVQLVESGGGLVQAGGSLRLICAASGSTLTSNSMGWYRQAPGKERELVASISRRGDSTNYADSVKGRFTISRDNAKNTVYLQMNSLKPEDTAVYYCVAYGYFQSNLWSEFDYWGQGTQVTVSS”: the “polyreactivity (PSR sort gate)” value was “low polyreactivity”.

As for “QVQLVESGGCLVQAGGSLRLSCAASGRTFGRNAMGWYRKAPGKERDLVAAISRSGASTYYADSVKGRFTISRDNAKITVYLQMNSLKEEDTAVYYCAKDVWGSRYAYDYWGQGTQVTVSS”, the “polyreactivity (PSR sort gate)” value is “low polyreactivity”.

Regarding “QVQLVESGGGLVQAGGSLRLSCAASGRTIPTYVMGWYRQAPGKERELVASIRSGGRTKYADSVKGRFTISRDNAKNTVYLQMNSLKPEDTAVYYCAADRRAYYYSFDYWGQGTQVTVSS”, the “polyreactivity (PSR sort gate)” value is reported as “low polyreactivity”.

Turning to “QVQLVESGGGLVQAGGSLRLSCAASGITFDYYAMGWYRQAPRKERELVAAITGGGSTNYADSVKGRFTISRDNAKNTVYLQMNSLIPEDTAVYFCNALTRYRYQYGYLGGTGYNYWGHGTQVTVSS”, the “polyreactivity (PSR sort gate)” value is “low polyreactivity”.

Consider “QVQLVESGGGLVQAGGSLRLSCAASGSIFDYNAMGWYREAAGKEREFVASITYSGGSTNYADSVKGRFTISRDNAKNTVYLQMNSLKPEDTAVYYCSKTIGIVWIYYPGARYEDWGQGTQVTVSS”, for which the “polyreactivity (PSR sort gate)” value is “low polyreactivity”.

Take “QVQLVESGGGLVQAGGSLRLSCAASGRTFSVNAMGWYRKAPGKERELVAAISWSTGSTYYADSVKGRFTISRDNAKNTVSLQMNSLKPEDTAVYYCAKLYEYRRSRYRTYGYWGQGTQVTVSS”: the “polyreactivity (PSR sort gate)” value is “high polyreactivity”.

As to “QVQLVESGGGLVQAGGSLRLSCAASGRTLEDYVMGWYRQAPGKERELVAAISWSGVSTYYADSVKGRFTISRDNEKNTVYLQMNSLKPEDTAVYYCAKDSTADELTGFDYWGQGTQVNVSS”, the “polyreactivity (PSR sort gate)” value is “low polyreactivity”.

For the sequence “QVQLVESGGGLLQAGGSLRLSCAASGSTFVYYAMGWYRQAPGKERELVASINSGGSTYYADSVKGRFRISRDNEKNTVYLQMNSLKPEDTAVYYCAATSIPPSVHLQDPTYDYWGQGTQVTVSS”, the “polyreactivity (PSR sort gate)” value is given as “low polyreactivity”.

Take “QVQLVESGGGLVQAGGSLRLSCAASGSTFSRNAMGWYRQAPGKERELVATISRSGRTNYADSVKGRFTISRDNAKNTVYLQMNSLKPEDTAVSYCNAGYRRSYEYWGQGTQVTVSS”: the “polyreactivity (PSR sort gate)” value was “low polyreactivity”.

For “QVQLVESGGGLVQAGGSLRLSCAASGSIFIANAMGWYRQAPGKERELVASISSGGSTNYADSVKGRFTISRDNAKNTVYLQMNSLKPEDTAVYYCAADGTDDYGGDFYLWVDYWGQGTQVTVSS”, the “polyreactivity (PSR sort gate)” value is on record as “low polyreactivity”.

Take “QVQLVESGGGLVQAGGSLRLSCAASGRTFTTYAMGWYRQAPGKERELVAAISGSGGSTYYADSVKGRFTISRDNAKNTVYLQMNSLKPEDTAVYYCATAYYYHGGYYYPYDDYWGQGTQVTVSS”: the “polyreactivity (PSR sort gate)” value was “low polyreactivity”.

For “QDQLVDSGGGFVQAGGSLSLSCAASRRTFLYYAMGWYRQAPGKERELVAAIRRGSSTYYADSVKGRFTISRDNAKNNGFLQLISLIAADTAVYYCAAEFVNGPPYGAYDYWGQGTQVTVSS”, the “polyreactivity (PSR sort gate)” value is given as “high polyreactivity”.

With “QVQLVESGGGLVQAGGSLRLSCAASGFTVGLYAMGWYRQAPGKERELVAAISGGGSTNYADSVKGRFTISRDNAKNTVYLQMNSLKPEDTAVYYCNKAYHNVYYNWYLRYYSYDYWGQGTQVTGSS”, the “polyreactivity (PSR sort gate)” value was “low polyreactivity”.

Regarding “QVQLVESGGGLVQAGGSLRLSCAASGIIFPRYAMGWYRQEPGKERELVAAITRRGGRTYYADSVKGRFTISRDNAKNTVYLQMNSLKPEDTAVYYCAARKVNRGSGGYDSWGQGTQVTVSS”, the “polyreactivity (PSR sort gate)” value is “high polyreactivity”.

For the sequence “QVQLVESGGGLVQAGGSLRLSCAASGYIFENYALGWYRQAPGKERELVAALSTRGGSTYYADSVKGRFTISRDNAKNTVYLQMNSLKPEDTAVYYCAAADSTGYYYWGQGTQVTVSS”, the “polyreactivity (PSR sort gate)” value is on record as “high polyreactivity”.

For the sequence “QVQLVESGGALVQAGGSLRLSCAASGFIFDAYAMGWYRQAPGKERELVPAIDYSGGNTYYADSVKGRFTISRDYAKNTVYLQMNSLKTEDTAVYYCNADYAGSFWSREYDYWGQGTQVTVSS”, the “polyreactivity (PSR sort gate)” value was “low polyreactivity”.

Consider “QVQLVESGGGLVQAGGSLRLSCAASGSTYYWYMGWYRQAPGKERELVAAITSGGRTYYADSVKGRFTISRDNAKNTVYLQMNSLKPEDTAVYYCARPYSRAYDYWGQGTQVTVSS”, for which the “polyreactivity (PSR sort gate)” value is recorded as “high polyreactivity”.

On to “QVQLVESGGGLVQAGGSHRLSCAASGSIFYYYTMGWYRQAPGKERELVASITGGGSTYYADSVKGRFTISRDHAKNTVYLQMNSLKPEDTAVYYCAAYSLRPRWRREYDYWGQGTQVTVSS”, for which the “polyreactivity (PSR sort gate)” value is “high polyreactivity”.

Regarding “QVQLVESGGGLVQAGGSLRLSCAASGRTFSYNTMGWYRQAPGKVSELVAAISTGVSTYYADSVKGRFTISRDNAKNTVYLQMNSLKPEDTEVYYCARGGRPRWYPPHNYWGQGTQLTVSS”, the “polyreactivity (PSR sort gate)” value is on record as “low polyreactivity”.

For “QVQLVESGGGLFQAGGSLRLSCAASGSIFAGYAMGWSRQAPGNERELVATITSSSRTNYADSVKGRFTISRDNAKNTVYLQMNSLKPEDTAVYYCAATSFSVRFTRYYYWGQGTQVTVSS”, the “polyreactivity (PSR sort gate)” value was “high polyreactivity”.

With “QVQLVESGGGLVQAGGSLRLSCAASGSIFSYYAMGWYRQAPGKERELVAAISSGVSSTYYADSVKGRFTISRDNAKNTVYLQMNSLKPEYTAVYYCNADRPYRLNEYWGQGTQVTVSS”, the “polyreactivity (PSR sort gate)” value is given as “high polyreactivity”.

For the sequence “QVQLVESGGGLVQAGGSLRLSCAASGSIFSYYAMGWYRQAPGKERELVAAITISGSSTYYADSVKGRFTISRDNAKNTVYLQMNSLKPEDTAVYYCNVVPLGSKNSVSHYYWGQGTQVTVSS”, the “polyreactivity (PSR sort gate)” value is recorded as “high polyreactivity”.

Consider “QVQHVESGGGLDQAARSLRLICAASGSIFTDNGMGWYRQAPGKERELVAAISWRGGTYYADSVKGRFTISRDNAKNSVYLQMNSLKPEDTAVYYCNADPEAEGNFEYYYWGQGTQVTVSS”, for which the “polyreactivity (PSR sort gate)” value is “low polyreactivity”.

As for “QVQHVETGGGLVQAGGSLRLSCAASGRIFSYNAMGWYRQPPGKERELVAAISQRGGRTYYADSVKGRFTISRDNAKNTVYLQMNSLKPEDPAVYDCNKDKGQSLSSYGYWGQGTQVTVSS”, the “polyreactivity (PSR sort gate)” value is reported as “high polyreactivity”.

Regarding “QVQLVESGGGLVKAGGSLRLSCCASGFTFTGYAMGWYRQAPGKEWELVAAITRGGGSTYYADSVKGRFTISRDNAKNTVYLQMNSLKREDTAVYYCAAQGSRLIRISSPYYGHDYWGQGTQVTVSS”, the “polyreactivity (PSR sort gate)” value is recorded as “low polyreactivity”.
